Data taken from patent US20240368249A1 (INTERVET, published 2024).

T1: canine IL-13 (canine, UniProt Q9N0W9 19-131, limits assumed, biotin-labeled in the OCTET assay)
T1 construct: also called cIL-13; canine Interleukin-13
T1 sequence (looked up): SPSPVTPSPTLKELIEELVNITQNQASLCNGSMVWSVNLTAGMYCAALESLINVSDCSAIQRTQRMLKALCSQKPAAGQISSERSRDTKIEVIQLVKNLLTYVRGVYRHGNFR


Legend:
canine IL-31Rα (canine) [1] = assay: ELISA, plate coated with cIL-31Rα at 1 µg/mL, detection with HRP anti-dog IgG Fc, OD450/540
canine IL-31Rα (canine) [2] = assay: ELISA, plate coated with cIL-31Rα at 1 µg/mL, detection with HRP anti-dog IgG Fc, OD450/540nm
canine IL-13 = target: T1, canine IL-13; assay: BLI (OCTET HTX), biotin-cIL-13 on SA biosensors
Procedure: The binding constants for the cFc fusion proteins provided in Tables 3 and 4 below, were determined using OCTET® HTX. All kinetics measurements were performed by OCTET® HTX using SA® biosensors and DATA ACQUISITION® 12.0 software. 10 μg/mL of biotin-labeled antigen, either canine IL-4 (cIL-4) or canine IL-13 (cIL-13) were loaded onto the SA® biosensors for 120 seconds. Next, the biosensors were placed into 1×pH 7.0 TBS/Casein buffer for 60 seconds for the blocking phase. For the association phase, antigen loaded biosensors were placed into 2-fold serial dilutions from 1 μM down to 15.6 nM of the wild-type, the bispecific, or the FcRn-mutant receptor Fc-fusions that recognized the cIL-4 or cIL-13 antigen in 1×pH 7.0 TBS/Casein buffer for 30 seconds. The last well was buffer alone and that sensor was used for reference sensor subtraction. Finally, the biosensors were placed into 1×pH 7.0 TBS/Casein buffer for 120 seconds for the dissociation phase. The results were then analyzed using Data Analysis 12.0 software and the curves were fitted using a 1:1 binding model.

Row | Binder | EC50 (canine IL-31Rα (canine) [1]) [ng/mL] | further results
1 | Chimeric rat/canine 44E2 (antibody, V domains shown) VH: QVQLKESGPGLVQPSQTLSLTCTVSGFSLTSNGVSWVRQPPGKGLEWIAAISSGGSTYYNSVLKSRLSISRDTSKSQVFLKMNSLQTEDTAIYFCTRRLSGYNYVPFAYWGQGTLVTVSS VL: DIQMTQSPSLLSASVGDRVTLNCKASQNIYKHLAWCQQKLGEPPNLLISNANSLQTGIPSRFSGSGSGTDFTLTISSLQPEDVATYFCQQYYSGDTFGAGTKLELKR | 1.37 | –
2 | Caninized 28F12 H1k3 (antibody, V domains shown) VH: EVQLVESGGDLVKPGGSLRLSCVASGFTFSDYYMAWVRQAPGKGLQWVATISYDGSSTYYRDSVRGRFTISRDNAKNTLYLQMNSLRAEDTAMYYCAKGPLTDWAPNWFAYWGQGTLVTVSS VL: DIVMTQSPASLSLSQEEKVTITCQTSEDIYSGLAWYQQKPGQAPKLLIYGASRLEDGVPSRFSGSGSGTDFSFTISSLEPEDVAVYFCQQGLKYPNTFGAGTKVELKR | 1.74 | –
3 | Caninized 28F12 H2k2 (antibody, V domains shown) VH: EVQLVESGGDLVKPGGSLRLSCAASGFTFSDYYMAWVRQAPGKGLQWVATISYDGSSTYYRDSVRGRFTISRDNAKNTLYLQMNSLRAEDTAMYYCARGPLTDWAPNWFAYWGQGTLVTVSS VL: EIVMTQSPASLSLSQEEKVTITCQTSEDIYSGLAWYQQKPGQAPKLLIYGASRLEDGVPSRFSGSGSGTDFSFTISSLEPEDVAVYYCQQGLKYPNTFGAGTKVELKR | 1.74 | –
4 | Caninized 28F12 H2k3 (antibody, V domains shown) VH: EVQLVESGGDLVKPGGSLRLSCAASGFTFSDYYMAWVRQAPGKGLQWVATISYDGSSTYYRDSVRGRFTISRDNAKNTLYLQMNSLRAEDTAMYYCARGPLTDWAPNWFAYWGQGTLVTVSS VL: DIVMTQSPASLSLSQEEKVTITCQTSEDIYSGLAWYQQKPGQAPKLLIYGASRLEDGVPSRFSGSGSGTDFSFTISSLEPEDVAVYFCQQGLKYPNTFGAGTKVELKR | 1.74 | –
5 | Chimeric rat/canine 28F12 (antibody, V domains shown) VH: EVQLVESDGGLAQPGRSLKLSCAASGFTFSDYYMAWVRQAPTKGLEWVATISYDGSSTYYRDSVRGRFTISRDNAKSTLYLQMDSLRSEDTATYYCARGPLTDWAPNWFAYWGQGTLVTVSS VL: DIQMTQSPASLSASLGETVTIQCQTSEDIYSGLAWYQQKPGKSPQFLIYGASRLEDGVPSRFSGSGSGTQYSLKISSMQTEDEGVYFCQQGLKYPNTFGAGTKLELKR | 1.66 | EC50 (read off the curve) (canine IL-31Rα (canine) [1]): 1 ng/mL
6 | Caninized 44E2 H5k1 (antibody, V domains shown) VH: ELTLQESGPGLVKPSQTLSLTCTVSGFSLTSNGVSWIRQRPGRGLEWMGAISSGGSTYYNSVLKSRISITADTAKNQFSLQLSSMTTEDTAVYYCARRLSGYNYVPFAYWGQGTLVTVSS VL: EIVMTQSPASLSLSQEEKVTITCKASQNIYKHLAWYQQKPGQAPKLLIYNANSLQTGVPSRFSGSGSGTDFSFTISSLEPEDVAVYYCQQYYSGDTFGAGTKVELKR | 1.35 | –
7 | Caninized 44E2 H5k2 (antibody, V domains shown) VH: ELTLQESGPGLVKPSQTLSLTCTVSGFSLTSNGVSWIRQRPGRGLEWMGAISSGGSTYYNSVLKSRISITADTAKNQFSLQLSSMTTEDTAVYYCARRLSGYNYVPFAYWGQGTLVTVSS VL: EIVMTQSPASLSLSQEEKVTITCKASQNIYKHLAWYQQKPGQAPKLLIYNANSLQTGIPSRFSGSGSGTDFSFTISSLEPEDVAVYFCQQYYSGDTFGAGTKVELKR | 3.97 | –
8 | Chimeric rat/canine 10A12 (antibody, V domains shown) VH: EVQLVESGGGLVKPGRSMKLSCAASGFTFSNYYMAWVRQAPTKGLEWVASISTGGGNTYYRDSVKGRFTISRDNAKRTLYLQMDSLRSEDTATYYCGRHGTLYFDYWGQGVMVTVSS VL: QFTLTQPKSVSGSLRSTITIPCERSSGDIGDSYVSWYQQHLGRPPINVIYVDDQRPSEVSDRFSGSIDSSSNSASLTITDLQMDDEADYFCQSYDSNIDGPVFGGGTKLTVLG | – | EC50 (canine IL-31Rα (canine) [2]): 0.518 ng/mL
9 | Caninized 10A12 H1L5 (antibody, V domains shown) VH: EVQLVESGGDLVKPGGSLRLSCVASGFTFSNYYMAWVRQAPGKGLQWVASISTGGGNTYYRDSVKGRFTISRDNAKNTLYLQMNSLRAEDTAMYYCAKHGTLYFDYWGQGTLVTVSS VL: QPVLTQPPSLSASLGTTARLTCERSSGDIGDSYVSWYQQKPGSPPRDLLYVDDQRPSGVSKSFSGSKDTSANAGLLLISGLQPEDEADYYCQSYDSNIDGPVFGGGTHLTVLG | – | EC50 (canine IL-31Rα (canine) [2]): 13.5 ng/mL
10 | Caninized 10A12 H2L6 (antibody, V domains shown) VH: EVQLVESGGDLVKPGGSLRLSCAASGFTFSNYYMAWVRQAPGKGLQWVASISTGGGNTYYRDSVKGRFTISRDNAKNTLYLQMNSLRAEDTAMYYCARHGTLYFDYWGQGTLVTVSS VL: QPVLTQPPSLSASLGTTARLTCERSSGDIGDSYVSWYQQKPGSPPRDVIYVDDQRPSEVSKSFSGSKDTSANAGLLLISGLQPEDEADYFCQSYDSNIDGPVFGGGTHLTVLG | – | EC50 (canine IL-31Rα (canine) [2]): 0.34 ng/mL
11 | cIL-13Rα1-cIgGB-Fc-YTE CH2 Numbering (L18Y/A20T/T22E) (Fc fusion, Homodimer; also called cIL-13Rα1-cFc-YTE) GGVAAPTETQPPVTNLSVSVENLCTVIWTWDPPEGASPNCTLRYFSHFDNKQDKKIAPETHRSKEVPLNERICLQVGSQCSTNESDNPSILVEKCTPPPEGDPESAVTELQCVWHNLSYMKCTWLPGRNTSPDTNYTLYYWHSSLGKILQCEDIYREGQHIGCSFALTNLKDSSFEQHSVQIVVKDNAGKIRPSFNIVPLTSHVKPDPPHIKRLFFQNGNLYVQWKNPQNFYSRCLSYQVEVNNSQTETNDIFYVEEAKCQNSEFEGNLEGTICFMVPGVLPDTLNTVRIRVRTNKLCYEDDKLWSNWSQAMSIGENTDPTPKRENGRVPRPPDCPKCPAPEMLGGPSVFIFPPKPKDTLYITREPEVTCVVVDLDPEDPEVQISWFVDGKQMQTAKTQPREEQFNGTYRVVSVLPIGHQDWLKGKQFTCKVNNKALPSPIERTISKARGQAHQPSVYVLPPSREELSKNTVSLTCLIKDFFPPDIDVEWQSNGQQEPESKYRTTPPQLDEDGSYFLYSKLSVDKSRWQRGDTFICAVMHEALHNHYTQESLSHSPGK | – | fold decrease in affinity against the unmodified cIL-13Rα1-cFc (canine IL-13): ~4 fold decrease
12 | cIL-13Rα2-cIgGB-Fc-YD CH2 Numbering (L18Y/T22D) (Fc fusion, Homodimer; also called cIL-13Rα2-cFc-YD) SMLSNAEIKVNPPQDFEIVDPGYLGYLSLQWQPPLFPDNFKECTIEYELKYRNIDSENWKTIITKNLHYKDGFDLNKGIEAKINTLLPAQCTNGSEVRSSWAETTYWTSPQGNRETKIQDMDCVYYNWQYLVCSWKPGMGVHFDTNYQLFYWYEGLDHSAECTDYIKVNGKNMGCRFPYLESSDYKDFYICVNGSSESQPIRPSYFIFQLQNIVKPMPPDYLSLTVKNSEEINLKWNMPKGPIPAKCFIYEIEFTEDGTTWVTTTVENEIQITRTSNESQKLCFLVRSKVNIYCSDDGIWSEWSDEQCWKGDIWKETPKRENGRVPRPPDCPKCPAPEMLGGPSVFIFPPKPKDTLYIARDPEVTCVVVDLDPEDPEVQISWFVDGKQMQTAKTQPREEQFNGTYRVVSVLPIGHQDWLKGKQFTCKVNNKALPSPIERTISKARGQAHQPSVYVLPPSREELSKNTVSLTCLIKDFFPPDIDVEWQSNGQQEPESKYRTTPPQLDEDGSYFLYSKLSVDKSRWQRGDTFICAVMHEALHNHYTQESLSHSPGK | – | factor of decrease of KD against the unmodified cIL-13Rα2-cFc (canine IL-13): ~2 fold lower KD
13 | cIL-13Rα2-cIgGB-Fc-YTE CH2 Numbering (L18Y/A20T/T22E) (Fc fusion, Homodimer; also called cIL-13Rα2-cFc-YTE) SMLSNAEIKVNPPQDFEIVDPGYLGYLSLQWQPPLFPDNFKECTIEYELKYRNIDSENWKTIITKNLHYKDGFDLNKGIEAKINTLLPAQCTNGSEVRSSWAETTYWTSPQGNRETKIQDMDCVYYNWQYLVCSWKPGMGVHFDTNYQLFYWYEGLDHSAECTDYIKVNGKNMGCRFPYLESSDYKDFYICVNGSSESQPIRPSYFIFQLQNIVKPMPPDYLSLTVKNSEEINLKWNMPKGPIPAKCFIYEIEFTEDGTTWVTTTVENEIQITRTSNESQKLCFLVRSKVNIYCSDDGIWSEWSDEQCWKGDIWKETPKRENGRVPRPPDCPKCPAPEMLGGPSVFIFPPKPKDTLYITREPEVTCVVVDLDPEDPEVQISWFVDGKQMQTAKTQPREEQFNGTYRVVSVLPIGHQDWLKGKQFTCKVNNKALPSPIERTISKARGQAHQPSVYVLPPSREELSKNTVSLTCLIKDFFPPDIDVEWQSNGQQEPESKYRTTPPQLDEDGSYFLYSKLSVDKSRWQRGDTFICAVMHEALHNHYTQESLSHSPGK | – | factor of decrease of KD against the unmodified cIL-13Rα2-cFc (canine IL-13): ~2 fold lower KD
